Blank lines part the entries; values can stand above or below the sequence they belong to.
Columns and labels:
[1] = target: HLA-A*02:12; assay: IEDB peptide-MHC binding, purified MHC/direct/fluorescence; filed as Kd, often an IC50 or EC50 that approximates it; ≥ and ≤ were set here for values at or beyond the usual limits of such assays
[2] = target: HLA-A*03:01; assay: as above; settings: source organism: Choclo virus
[3] = target: HLA-B*58:01; assay: as above; settings: source organism: Orthohantavirus andesense
[4] = target: HLA-B*39:01; assay: IEDB peptide-MHC binding, purified MHC/competitive/fluorescence; filed as Kd, often an IC50 or EC50 that approximates it; ≥ and ≤ were set here for values at or beyond the usual limits of such assays; settings: source organism: Choclo virus
[5] = target: HLA-B*27:03; assay: as above; settings: source organism: Choclo virus
[6] = target: HLA-B*15:17; assay: as above; settings: source organism: Choclo virus
[7] = target: HLA-B*15:01; assay: as above; settings: source organism: Choclo virus
[8] = target: HLA-A*26:01; assay: as above; settings: source organism: Choclo virus
[9] = target: HLA-B*46:01; assay: as above; settings: source organism: Choclo virus
[10] = target: HLA-B*51:01; assay: as above; settings: source organism: Choclo virus
[11] = target: HLA-B*18:01; assay: as above; settings: source organism: Choclo virus
[12] = target: HLA-B*57:01; assay: as above; settings: source organism: Choclo virus
[13] = target: HLA-B*35:01; assay: IEDB peptide-MHC binding, purified MHC/competitive/radioactivity; filed as Kd, often an IC50 or EC50 that approximates it; ≥ and ≤ were set here for values at or beyond the usual limits of such assays
[14] = target: HLA-B*53:01; assay: as above
[15] = target: HLA-B*51:01; assay: as above
[16] = target: HLA-B*07:02; assay: as above
[17] = target: HLA-B*54:01; assay: as above
[18] = target: HLA-A*24:02; assay: IEDB peptide-MHC binding, purified MHC/competitive/fluorescence; ≥ and ≤ were set here for values at or beyond the usual limits of such assays; settings: source organism: Sudan ebolavirus
[19] = target: HLA-A*02:01; assay: as above; settings: source organism: Sudan ebolavirus
[20] = target: HLA-A*11:01; assay: as above
[21] = target: HLA-A*02:03; assay: IEDB peptide-MHC binding, purified MHC/direct/fluorescence; filed as Kd, often an IC50 or EC50 that approximates it; ≥ and ≤ were set here for values at or beyond the usual limits of such assays; settings: source organism: Mycobacterium tuberculosis str. Haarlem
[22] = target: HLA-A*02:11; assay: as above
[23] = target: HLA-A*69:01; assay: as above; settings: source organism: Mycobacterium tuberculosis
[24] = target: HLA-A*01:01; assay: as above; settings: source organism: SARS-CoV1
[25] = target: HLA-A*29:02; assay: IEDB peptide-MHC binding, purified MHC/competitive/radioactivity; filed as Kd, often an IC50 or EC50 that approximates it; ≥ and ≤ were set here for values at or beyond the usual limits of such assays; settings: source organism: SARS coronavirus Tor2
[26] = target: HLA-A*30:02; assay: as above; settings: source organism: SARS coronavirus Tor2
[27] = target: HLA-A*24:02; assay: as above; settings: source organism: SARS coronavirus Tor2
[28] = target: HLA-A*26:01; assay: as above; settings: source organism: SARS coronavirus Tor2
[29] = target: HLA-A*23:01; assay: as above; settings: source organism: SARS coronavirus Tor2
[30] = source organism: Vaccinia virus WR
[31] = source organism: SARS coronavirus Tor2
[32] = source organism: Mycobacterium tuberculosis str. Haarlem
[33] = source organism: Mammarenavirus whitewaterense
[34] = source organism: Mammarenavirus lassaense
[35] = source organism: Triticum aestivum

Sequence: VMGVIGFGF
Kd ([1]; source organism: Choclo virus): ≥ 20000 nM
Kd [2]: ≥ 20000 nM
Kd [3]: 2190 nM
Kd [4]: ≥ 20000 nM
Kd [5]: ≥ 20000 nM
Kd [6]: ≥ 20000 nM
Kd [7]: ≥ 20000 nM
Kd [8]: ≥ 20000 nM
Kd [9]: ≥ 20000 nM
Kd [10]: ≥ 20000 nM
Kd [11]: ≥ 20000 nM
Kd [12]: ≥ 20000 nM

Sequence: PPLISILMIF
Kd [13, 30]: 761 nM
Kd [14, 30]: 497 nM
Kd [15, 30]: 2020 nM
Kd [16, 30]: 270 nM
Kd [17, 30]: 3120 nM

Sequence: IPTNFSISI
Kd [13, 31]: 31.2 nM
Kd [14, 31]: 10.7 nM
Kd [15, 31]: 57.1 nM
Kd [16, 31]: 64.1 nM
Kd [17, 31]: 49.9 nM

Sequence: SPTEMVDVSM
Kd [13, 30]: 37.2 nM
Kd [14, 30]: 1940 nM
Kd [15, 30]: ≥ 69600 nM
Kd [16, 30]: 122 nM
Kd [17, 30]: ≥ 42700 nM

Sequence: EWAFWENKK
IC50 [18]: 15300 nM
IC50 [19]: ≥ 183000 nM
IC50 ([20]; source organism: Sudan ebolavirus): 10800 nM

Sequence: LLYDGSFAV
Kd [1, 32]: 2 nM
Kd [21]: ≤ 1 nM
Kd [22, 32]: ≤ 1 nM
Kd [23]: 4.3 nM

Sequence: DPGNPNCLEW
Kd [13, 30]: ≥ 56500 nM
Kd [14, 30]: 6.64 nM
Kd [15, 30]: ≥ 69600 nM
Kd [16, 30]: ≥ 69600 nM
Kd [17, 30]: ≥ 69900 nM

Sequence: NPTNISKCF
Kd [13, 33]: 199 nM
Kd [14, 33]: 77.7 nM
Kd [15, 33]: 5740 nM
Kd [16, 33]: 8660 nM
Kd [17, 33]: 3470 nM

Sequence: FPAQPGLTSA
Kd [13, 34]: 51 nM
Kd [14, 34]: 2910 nM
Kd [15, 34]: ≥ 32300 nM
Kd [16, 34]: 49.6 nM
Kd [17, 34]: 6.39 nM

Kd [13, 35]: 735 nM
Kd [14, 35]: 323 nM
Kd [15, 35]: 3.53 nM
Kd [16, 35]: 1030 nM
Kd [17, 35]: 4330 nM
Sequence: FPSQQPYL

Sequence: PVDEYITTY
Kd [24]: 44 nM
Kd ([22]; source organism: SARS-CoV1): ≥ 20000 nM
Kd [25]: 544 nM
Kd [26]: 1480 nM
Kd [27]: ≥ 77600 nM
Kd [28]: 10800 nM
Kd [29]: ≥ 77800 nM

Sequence: GEWAFWETK
IC50 ([20]; source organism: Zaire ebolavirus): 58000 nM

Sequence: IPYSRVNHA
Kd [13, 30]: 57.2 nM
Kd [14, 30]: 177 nM
Kd [15, 30]: 23.2 nM
Kd [16, 30]: 6.63 nM
Kd [17, 30]: 0.133 nM

Sequence: YPNSSDLDM
Kd [13, 34]: 8.23 nM
Kd [14, 34]: 14.1 nM
Kd [15, 34]: 780 nM
Kd [16, 34]: 233 nM
Kd [17, 34]: ≥ 53900 nM

Source: the Immune Epitope Database (IEDB)
